Data published in a protein production outcome set (Wang et al. 2014).

Test: label from the status in PepcDB records

Row | Sequence | protein production
1 | AIDVSAKSAIIIDGASGRVLYAKDEHQKRRIASITKIMTAVLAIESGKMDQTVTVSANAVRTEGSAIYLTEGQKVKLKDLVYGLMLRSGNDAAVAIAEHVGGSLDGFVYMMNQKAEQLGMKNTRFQNPHGLDDHENHYSTAYDMAILTKYAMKLKDYQKISGTKIYKAETMESVWKNKNKLLTMLYPYSTGGKTGYTKLAKRTLVSTASKDGIDLIAVTINDPNDWDDHMKMFNYVFEHYQTYLIAKKGDIPKLKGTFYESKAFIKRDITYLLTEEEKENVKINTTLLKPKKAWEKDASKIPDIVGHMEIMFNDATIAKVPIYYENERHQK | not failed
2 | ALAETVSDFRLPNGLEVVVIEDHRAPVVTHMVWYRVGAADEPPGHSGIAHFLEHLMFKGTDEMSAGEFSATVEAQGGDDNAFTSWDYTAYFQRVAADRLDLMMKMEADRMRDLQMTEEDVRTERQVVLEERSQRTDSDPGAVFSEQSRAAAYLNHPYGIPIIGWRHEIEQLGREDAFSFYRTYYAPNNAILVVAGDVDPAEVRRMAEEHYGALEPTP | failed
3 | ALLQTPEFVEEFILDRTMNPAVREFGYEELKMIDPTCGSGHFVLGAFRRLVRLGGENQPGKDVHQRVRAALDSVHGVDINPFAVAIARFRLLVAAMAASGVRTLDEASKYEWPVHLAVGDSLIKSGSQQGSLFGESDDDLTDELAEFKYATEDVGEHPEMLRPGRYHVVVGNPPYITVKDKSLNALYRELYPACAGKYALSVPFAQRFFELAKREDAEGSGYGMVGQITANSFMKREFGTKLIEGYFGHAVELTEVIDTSGAYIPGHGTPTVILVGTRRGGDGR | failed
4 | ALRTELGLNVSGGGKTNQYYFSAGYLNDKGIALESGYERFNLRSNVTSQMTKWLRGGVNMSFAHSLQNYPVSSDTKTSNVINAGRLMNGFYPIYQMNEDGTYKLDSEGQRMYDFGSYRPSGSMANWNLPATLPNDKSERMKDEFSGRTFLEVTFIEGLKFKTSFNFDLINYNSLDYTNPKIGPAVNTGGSSSRENDRTFSWTWNNILTYDKTLGEHHFNLLAGQEAYSYRYDVLRASRSNMALPDFPELAVGSLVTGGTGYRVDYSLVGYFLNAQYDYQSKYFFSGSYRRDGSSRFAPETRWGNFWSVGASWRIDREDFMVAASDWLSALTLKVSYGAQGNDNLGTYYASSGLYSVVSNNGENALVSDRLATPKLKWETNLNFNAGIDFSLFNNRFSGSFDFFQRRSKDLLYSRPLAPSLGYNSVDENVGELKNTGVEIDLKGTLIHTRDFMWRLGLNLTHYKNVVTDLPLKDMP | failed
5 | ANKKIDHREEAIELLKQDAKRILQLIKVQMDNLTLPQCPAYEEVLDTQMYGLSREINFATRLGLIEPEEGKKLISTLEKELSALHELSMSK | failed
6 | ANLISPVCDMGSAVTAPVYAAILAYRDAVTQILGAPADFAQMMADEAISQILDLMRNEGIKNMEDKLNPKALTGTADSMCFGPLADILPASLKVLEKHANENKCECGCSIKP | failed
7 | APEERDLTQEQTEKLLQFQDLTGIESMDQCRHTLEQHNWNIEAAVQDRLNEQEG | not failed
8 | APHGPGLIYRQPNCDDPETEEAALVAIDYINQNLPWGYKHTLNQIDEVKVWPQQPSGELFEIEIDTLETTCHVLDPTPVARCSVR | failed
9 | APLYIKVHEIDNTAIIVNDGGLPKGTVFSCGLVLEEDVPQGHKVALTDLNQGDEIVRYGEVIGFADETIKRGSWIREALVRMPAP | not failed
10 | APTSSNDTGKTVVAVTACPTGIAHTYMAAEKLQETANKLGVRIKVETNGSRGVENRLTDKEIAEADGVIIAADVQVDMPRFDGKHLIAKPVAAGIHKPEELIKEAISGNAPVYKAESGSEATEST | not failed
11 | AQSDGWSPKDHNLIKSVREDGRFLSSYGVVHAMLRNTEPRYAFHRDFSPKEFRKWQKGLRHAMEEIMKFPQIKNSPAPVCIKREQREGYRLEKWEFYPLPKCVSTFLVLIPDNINKPVPAILCIPGSGGNKEGLAGEPGIAPKLNDRYKDPKLTQALNFVKEGYIAVAVDNPAAGEASDLERYTLGSNYDYDVVSRYLLELGWSYLGYASYLDMQVLNWMKTQKHIRKDRIVVSGFSLGTEPMMVLGTLDTSIYAFVYNDFLCQTQERAEVMTMPDKNGRRPFPNSIRHLIPDFWKNFNFPDIVAALAPRPIILTEGGLDRDLDLVRKAYAIVGTPDNVKIYHYKKFSDPDTRKNVEYLPEGLDRNEYFRMVNVDGPNHYFKSELVVPWLRKLLEER | not failed
12 | ARQVTPGQVMVASTVGKLSALLAADLSDEQAQRLGLDTLLPLRESDGPTLFCFHPASGFAWQFSVLARYLSPRWSITGIQSPRPQGPMASAASLDEVCEHHLQTLLAQQPHGPYYLFGYSLGGTLAQGIAARLRQRGEAVAFLGLLDTWPPETQNWAEKEANGLDPEVLAEIDREREAFLAAQQGQASGELFSAIEGNYADAVRLLTTAHSAKFDGKATLFVAEKTRQEGMDPQVVWGPWVGELEVFSQNCAHVDIISPQAFEAIGPVVREILG | not failed
13 | ASIVGSWVEPVPGLEGQVQGIKMEEGGVASSVNMATLVYESWKQEGTKLILTGKSIGNGQTIEFVDTMDIKRLTADSLVLDNQGMEIRYAKQK | not failed
14 | ASLLARYPPEKLFQAERNFNAAQDLDVSLLEGDLVGVIKKKDPMGSQNRWLIDNGVTKGFVYSSFLKPYNPRRSHSDAS | not failed
15 | ATFFIKMNQKTVPEFKNKHLRLAISQAINKKGYVNSVLNDGSLPSNNFTGVGTADTPDGKDFARTIKSPLKFNPDLAKKNWREAQKELGKNKFTFTMNTQDTPASKIAAEYIKSQIESHLPGVTLKIKQMPFKQKTTLELANNYEASYSGWSPDYPDPTAFLQTMTKNNAQNNTDWSNKEYDQLLKDANSKLLRKLGERNTSLQKAEYILLHEAPVAPVYQ | failed
16 | ATPPISNLTKTASESISNLSEAGSIKKGERELKIGDRVLVGGTKAGVVRFLGETDFAKGEWCGVELDEPLGKNDGAVAGTRYFQCQPKYGLFAPVHKVTKIGFPSTTPAKAKANAVRRVMATTSASLKRSPSASSLSSMSSVASSVSSRPSRTGLLTET | not failed
17 | ATSYMTCSAYQKVQDSEISFPAGVEVQVLEKQESGWWYVRFGELEGWAPSHYLVLDENEQPDPSGKE | not failed
18 | CGGCGEDVVGDGAGVVALDRVFHVGCFVCSTCRAQLRGQHFYAVERRAYCEGCYVATLE | not failed

Row | Sequence | protein production
19 | CTFKSVADEWVKTKTKLKPKTVQGNWRKLELYAFPKFGEIPVKSLTPIIVQEAFRPIARRGKLETVKRTIQLVNEIMRFAINSGLIQHNVLSGVG | failed
20 | CVECRKPIGADSKEVHYKNRFWHDTCFRCAKCLHPLANETFVAKDNKILCNKCTTREDSPKCKGCFKAIVAGDQNVEYKGTVWHKDCF | not failed
21 | DAPPAWLRCLAATYPVLAPLPNWGLSESRFRPVRAVANAGALPVVLTRVGREMPEIAATVEEFLAAAKDCGADVEVVDVPHGHHGFETIDLTDESRTAVRHALRTVL | failed
22 | DDAGKTAIYWLGYDLPPEIPTIVILHTITGTPSSMRELVRDLHQHTGWRIALCVRRGHADLEFSVPRFNLFGSVSDLKQQLDYIQNHFPQSNLYGVGSSAGSGLLVRYLGEEADEAYFKAAFAFCPGYNTETGFEKVHPVYSQYMAKKLLKTFVYKYIDSWQHVENLEEVLSSKNLTEFHLRYYKLAGFKNYQEYSLATNPMHVFKNIKIPLMVLNSQDDPVCHIDNFEPYIPEIQKLSNIVVVTTKKGSHCAFYEGWTPQSWASRLMANYFLQHHQ | failed
23 | DDDDDNGGSSVMNITGIYLEDAKSNVPDRLVDFARLGQLIRIEGEGFNGLKKVYINGYNCYFNPVFVSNKSFLVSVNSKVPTTEADENVRNTIRLVKDGGEYVYDFQIRAAAPSITKISNCMPNVGEPIIVYGSGLTEIAKVVFPGNVVVTEGIISDLDGEYFMVDMPAGVSEEGGSIFVEGSNGGAYSPAYFNYKKGLLLNFDGVGAQGAWGDSESMIQTTELESASIGEGNVSQGAYCRLPLERQLPVAAAKNRCAEVWTAGNGTDPDWLTLGVPAETPVAECAIQFEIYVPEPWSESGFLKICGQNGFNGGEWERDCYNYVPWLVDGKIVPFQTTGWQTVTVPFSEFYKSKASSGAWTTFADVTATRASASYANFGFYFENSDITLDKITGASSDKETEFLSKATSVKIYIDNWRVVPLTKPEYTDFPDEEEDAE | not failed
24 | DDDLEVKEENGVWVLNDGNFDNFVADKDTVLLEFYAPWCGHCKQFAPEYEKIASTLKDNDPPIAVAKIDATSASMLASKFDVSGYPTIKILKKGQAVDYDGSRTQEEIVAKVREVSQPDWTPPPEVT | not failed
25 | DELFNWFYIRSEINSKMSFYIATESDALVSILGFYACDFLIDSRIVPGLWTAMWFTLPQYRNGIGALLMKELVDTNSCSMWPRRIKHEFTNS | failed
26 | DETIHLERGENLFEIHINKVTFSSEVLQASGDKEPVTFCTYAFYDFELQTTPVVRGLHPEYNFTSQYLVHVNDLFLQYIQKNTITLEVHQAYSTEYETIAACQLKFHEILEKSGRIFCTASLIGTKGDIPNFGTVEYWFRLRV | not failed
27 | DFNPEIFQLESYFKSKYHLKDIEIVSSRKDSDTSEIEKDLAHVAAAMIRKKIKENDKVGIAWGRTLSKVVEAMRPHPVSQVSFVPLAGGPSHINARYHVNTLVYEMSRRFQGSCTFINATLVQENANLAKGILTSKYFEGLMDNWEKLDVAIVGVGGKPKSNEQQWLDLLNQDDFQCLDEEAAVGEITCRFFNHSGDPVNQHLAKRTIGITLEQLQKVPNRIAVAHGNYKAAALLAVLKKGYINHLVTDFSTALNILRLDKDTFVDTIYQKS | failed
28 | DGDIGQLSKTFNYMVSELKSRRNELIAVRDQIDERRRFSEAVLSGVTAGVAGIDDNGNITIINRSIETMFDIRSEHVIGHSLLSLSAEIDQVFQFARSLGRKNHREQVTLSVAGQERVCNVQITMEKDDG | failed
29 | DGIVELKTVPFDQLVVYEQKLFPAERERFLRLWIKQPNSAAYAVVRDGQIVGYGVIRQSHTGLRIGPLNADNEQIAEQLLLALLAFRSDALVFLDVPDANLEAIKLVQRYGMKPVSEVARMYNKEIPNLLINRVFAVTSLEVG | failed
30 | DGQPVAMGDVGELVIGGVGLARYLDPVKDREKFSAELGWERAYRSGDHVRLCEDGLYFVGRIDDQVKIGGRRIELGEVEAHVAALPNVAQYAVVVRETAAGEKVLVAYVSPQVPDVDIDTSALDELPRAMVPRLVVLPEIPTTTSGKADKKALPWPLESAQVTGSDFTPTQQWLAQLWVDVLGVPVGDVD | failed
31 | DISEELDYERGRYLDAMIDNHKYTGKARAIIYGQPELALALAKVCFENGVNVKLIALGAKNKILEEALKEEIKSQREEVLVLDDTDFDTIEKYAKEFNVNLFIGNSDGRRMASRLGIEIIRVGFPIHDRV | failed
32 | DISKITDVAVMTVEGANDDISAPGQCIAALDLCTGLADSKKANHLEPGAGHYGIFAGRSWRDNIRPLVIDFMNTNSRKGKSLRPANKNSAA | failed
33 | DKLYPCQCGKSFTHKSQRDRHMSMHLGLRPYGCGVCGKKFKMKHHLVGHMKIHTGIKPYECNICAKRFMWRDSFHRHVTSCTKSYEAAKAEQNTTEA | not failed
34 | DKMDGAPSRVLHIRKLPGEVTETEVIALGLPFGKVTNILMLKGKNQAFLELATEEAAITMVNYYSAVTPHLRNQPIYIQYSNHKELKT | not failed
35 | DLREVLDFMLKDEVSKLRKLLVKIKTKKIAEVEYENVVKALKLFKDNYEINEYLMDENTKEFLIKRNILFLNPVEEILKPQSYLVWNAIKRVLQNINDF | not failed
36 | DPGERLYDLNMPAYVKFNYMAEREDELSLIKGTKVIVMEKCSDGWWRGSYNGQVGWFPSNYVTEEGDSPLGDHVG | not failed
